In publication PMC2582629 (Nucleic Acids Research, 2008):

Molecular target: T1, mouse mMLH1 (mouse, UniProt Q9JK91 1-760)
T1 sequence (looked up): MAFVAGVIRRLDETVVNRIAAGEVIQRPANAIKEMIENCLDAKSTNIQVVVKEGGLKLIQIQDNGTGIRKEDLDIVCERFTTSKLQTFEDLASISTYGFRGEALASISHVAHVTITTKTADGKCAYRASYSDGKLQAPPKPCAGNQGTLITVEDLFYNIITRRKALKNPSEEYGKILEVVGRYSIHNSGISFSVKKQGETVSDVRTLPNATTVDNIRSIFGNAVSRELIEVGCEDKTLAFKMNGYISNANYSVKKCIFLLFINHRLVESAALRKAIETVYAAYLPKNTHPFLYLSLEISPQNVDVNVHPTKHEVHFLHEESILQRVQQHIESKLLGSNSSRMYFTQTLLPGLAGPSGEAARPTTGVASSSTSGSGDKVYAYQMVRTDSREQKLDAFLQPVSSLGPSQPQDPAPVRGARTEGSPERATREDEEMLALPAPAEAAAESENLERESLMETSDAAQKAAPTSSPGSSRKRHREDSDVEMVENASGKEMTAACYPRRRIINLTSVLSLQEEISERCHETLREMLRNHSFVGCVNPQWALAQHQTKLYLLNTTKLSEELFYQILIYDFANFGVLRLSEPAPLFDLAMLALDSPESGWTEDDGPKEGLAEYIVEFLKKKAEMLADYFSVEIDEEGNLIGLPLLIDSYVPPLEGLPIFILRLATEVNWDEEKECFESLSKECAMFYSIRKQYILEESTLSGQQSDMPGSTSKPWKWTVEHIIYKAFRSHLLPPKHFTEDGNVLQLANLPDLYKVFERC
Experiment: pull-down

binding result: binds
B1: GST-hRad9 (natural protein, human, UniProt Q99638 1-391, looked up)
chain: MKCLVTGGNVKVLGKAVHSLSRIGDELYLEPLEDGLSLRTVNSSRSAYACFLFAPLFFQQYQAATPGQDLLRCKILMKSFLSVFRSLAMLEKTVEKCCISLNGRSSRLVVQLHCKFGVRKTHNLSFQDCESLQAVFDPASCPHMLRAPARVLGEAVLPFSPALAEVTLGIGRGRRVILRSYHEEEADSTAKAMVTEMCLGEEDFQQLQAQEGVAITFCLKEFRGLLSFAESANLNLSIHFDAPGRPAIFTIKDSLLDGHFVLATLSDTDSHSQDLGSPERHQPVPQLQAHSTPHPDDFANDDIDSYMIAMETTIGNEGSRVLPSISLSPGPQPPKSPGPHSEEEDEAEPSTVPGTPPPKKFRSLFFGSILAPVRSPQGPSPVLAEDSEGEG
